Assay results: publication doi:10.1101/2023.08.20.554024, “Structural framework for the understanding spectroscopic and functional signatures of the cyanobacterial Orange Carotenoid Protein families” (bioRxiv, 2023)

Key:
GcapOCP2(ECH) = GcapOCP2(ECH) (Gloeocapsa sp. PCC 7428); experiment: cell-based or functional assay
ΔNTE-SynOCP1(ECH) = biological target: T1, ΔNTE-SynOCP1(ECH) (Synechocystis sp. PCC 6803, UniProt P74102 13-317); experiment: SEC; 10 μM OCP and 20 μM FRP pre-incubated in SEC buffer (20 mM Tris-HCl pH 7.6, 150 mM NaCl) for 15 min at room temperature; Superdex 200 Increase 5/150, 0.45 ml/min; profiles at 280 or 460 (or 500) nm, compared with algebraic sums of the single profiles; settings: both partners purified
T1 construct: Orange Carotenoid Protein (OCP1), Synechocystis sp; PCC 6803, Uniprot P74102, lacking residues Met1-Phe12 (the N-terminal extension); also called ΔNTE mutant of SynOCP1; ΔNTE-SynOCP1 holoform; source: obtained earlier [24]
T1 sequence (looked up): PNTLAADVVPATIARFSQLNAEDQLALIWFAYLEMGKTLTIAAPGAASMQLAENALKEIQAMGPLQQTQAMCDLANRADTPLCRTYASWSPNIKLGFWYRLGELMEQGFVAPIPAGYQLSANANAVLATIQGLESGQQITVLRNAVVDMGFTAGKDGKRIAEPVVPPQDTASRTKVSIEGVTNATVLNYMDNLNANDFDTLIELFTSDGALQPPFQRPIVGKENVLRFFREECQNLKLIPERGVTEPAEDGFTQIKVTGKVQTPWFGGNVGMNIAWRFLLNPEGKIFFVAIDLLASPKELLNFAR

B1: Fluorescence Recovery Protein from Synechocystis sp. PCC 6803 (natural protein, UniProt P74103 1-109, looked up)
chain: MLQTAEAPWSQAETQSAHALFRKAYQRELDGLLATVQAQASQITQIDDLWKLHDFLSAKRHEIDGKYDDRQSVIIFVFAQLLKEGLVQAEELTFLAADKQSKIKALARL
notes: Fluorescence Recovery Protein (FRP), Synechocystis sp; PCC 6803, Uniprot P74103; also called SynFRP; FRP; source: obtained in previous works [24,30] as electrophoretically homogeneous preparation devoid of tags
GcapOCP2(ECH)
  τ1/2 of the R-O transition of GcapOCP2 (OD550 after switching off blue LED) with a two-fold molar excess of SynFRP, 5-23 °C (203 to 250 s at 5°C, 12 to 16 s at 20°C): 250 s
ΔNTE-SynOCP1(ECH)
  binding result: binds
